Laboratory results published in IntAct's records for PubMed 27013965.

Target: lrp6_human LRP6 (UniProt O75581)
Chain of UniProt O75581 (O75581 whole entry): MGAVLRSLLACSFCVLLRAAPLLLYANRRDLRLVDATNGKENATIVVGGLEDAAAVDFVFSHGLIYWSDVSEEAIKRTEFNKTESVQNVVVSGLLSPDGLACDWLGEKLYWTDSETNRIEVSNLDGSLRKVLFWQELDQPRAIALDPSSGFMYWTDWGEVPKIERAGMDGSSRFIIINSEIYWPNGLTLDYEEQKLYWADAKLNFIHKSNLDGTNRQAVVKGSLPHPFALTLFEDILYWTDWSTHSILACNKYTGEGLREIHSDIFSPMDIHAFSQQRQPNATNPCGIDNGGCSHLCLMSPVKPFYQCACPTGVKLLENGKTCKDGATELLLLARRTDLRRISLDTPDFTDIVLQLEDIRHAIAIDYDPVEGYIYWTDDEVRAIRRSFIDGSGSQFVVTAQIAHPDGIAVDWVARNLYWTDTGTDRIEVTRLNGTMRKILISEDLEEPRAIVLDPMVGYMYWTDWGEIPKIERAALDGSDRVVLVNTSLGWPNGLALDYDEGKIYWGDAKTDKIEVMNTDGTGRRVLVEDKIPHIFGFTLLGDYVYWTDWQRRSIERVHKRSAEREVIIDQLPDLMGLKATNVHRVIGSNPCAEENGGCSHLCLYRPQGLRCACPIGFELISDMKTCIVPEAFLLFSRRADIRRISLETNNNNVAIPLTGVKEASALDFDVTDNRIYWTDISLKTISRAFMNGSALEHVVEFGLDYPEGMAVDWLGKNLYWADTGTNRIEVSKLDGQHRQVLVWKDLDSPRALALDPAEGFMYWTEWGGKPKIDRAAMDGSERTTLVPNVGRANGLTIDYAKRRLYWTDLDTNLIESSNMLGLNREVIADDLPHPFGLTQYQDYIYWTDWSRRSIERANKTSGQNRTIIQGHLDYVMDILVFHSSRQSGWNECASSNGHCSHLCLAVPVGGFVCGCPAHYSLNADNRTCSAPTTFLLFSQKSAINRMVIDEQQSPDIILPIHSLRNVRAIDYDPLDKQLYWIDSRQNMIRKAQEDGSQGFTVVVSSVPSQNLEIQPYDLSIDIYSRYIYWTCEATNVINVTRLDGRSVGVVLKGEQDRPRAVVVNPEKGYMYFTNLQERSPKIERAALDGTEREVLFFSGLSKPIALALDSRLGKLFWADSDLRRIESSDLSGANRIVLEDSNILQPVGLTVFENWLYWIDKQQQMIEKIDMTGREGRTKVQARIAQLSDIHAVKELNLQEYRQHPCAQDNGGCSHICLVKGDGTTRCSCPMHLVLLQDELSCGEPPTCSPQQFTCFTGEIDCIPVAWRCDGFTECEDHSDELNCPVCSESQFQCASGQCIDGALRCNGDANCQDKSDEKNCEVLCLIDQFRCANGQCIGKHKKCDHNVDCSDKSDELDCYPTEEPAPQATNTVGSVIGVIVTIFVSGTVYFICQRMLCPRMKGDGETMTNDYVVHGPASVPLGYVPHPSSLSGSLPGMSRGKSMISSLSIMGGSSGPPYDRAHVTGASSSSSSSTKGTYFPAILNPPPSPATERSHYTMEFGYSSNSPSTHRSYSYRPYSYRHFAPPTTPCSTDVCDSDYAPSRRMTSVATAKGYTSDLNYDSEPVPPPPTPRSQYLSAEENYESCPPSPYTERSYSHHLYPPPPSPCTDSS

Row | Substance | effect of a mutation on the interaction
1 | Leucine-rich repeat serine/threonine-protein kinase 2 (Homo sapiens), Q5S007 R1398H | decreasing interaction strength
2 | Leucine-rich repeat serine/threonine-protein kinase 2 (Homo sapiens), Q5S007 R1441G | decreasing interaction strength
